{
  "source": "the supplement of paper PMC11908140",
  "parents": {"B1": {"name": "library; numbered along this chain (parent)", "chain": "MRKPRAAVGSGHRKQAASQEGRQKHAKNNSQAKPSACDGLARQPEEVVLQASVSSYHLFRDVAEVTAFRGSLLSWYDQEKRDLPWRRRAEDEMDLDRRAYAVWVSEVMLQQTQVATVINYYTGWMQKWPTLQDLASASLEEVNQLWAGLGYYSRGRRLQEGARKVVEELGGHMPRTAETLQQLLPGVGRYTAGAIASIAFGQATGVVDGNVARVLCRVRAIGADPSSTLVSQQLWGLAQQLVDPARPGDFNQAAMELGATVCTPQRPLCSQCPVESLCRARQRVEQEQLLASGSLSGSPDVEECAPNTGQCHLCLPPSEPWDQTLGVVNFPRKASRKPPREESSATCVLEQPGALGAQILLVQRPNSGLLAGLWEFPSVTWEPSEQLQRKALLQELQRWAGPLPATHLRHLGEVVHTFSHIKLTYQVYGLALEGQTPVTTVPPGARWLTQEEFHTAAVSTAMKKVFRVYQGQQPGTCMGSKRSQVSSPCSRKKPRMGQQVLDNFFRSHISTDAHSLNSAAQ"}},
  "data": [
    {"variants_of": "B1", "assay": "8OG:A repair function score (normalized; synonymous = 0, nonsense = -1) (normalized log-likelihood score); higher = more repair activity (WT-like)", "settings": "with 8OG:A DNA repair reporter (GFP) in HEK-293 MUTYH KO cells", "outline": "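After 72 h, viable mCherry+ cells were split into GFP+ (repair) and GFP− bins in three replicates per tile. These cells were MUTYH knockout HEK-293 cells holding lentiviral MUTYH cDNA NNN codon-scan libraries, kept in 10 pg/ml doxycycline and co-transfected with mCherry plus an 8OG:A GFP repair reporter. Sequencing of tile amplicons gave per-tile Rosace fitness scores, normalized into a repair function score anchored on synonymous and nonsense distributions. Synonymous medians were fixed at 0, nonsense at -1, and variants under 300 counts per million at the start were removed.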", "values": [
      {"variant": "MRKPRAAVGSGHRKQAASQEGRQKHAKNNSQAKPSACDGLARQPEEVVLQASVSSYHLFRDVAEVTAFRGSLLSWYDQEKRDLPWRRRAEDEMDLDRRAYAVWVSEVMLQQTQVATVINYYTGWMQKWPTLQDLASASLEEVNQLWAGLGYYSRGRRLQEGARKVVEELGGHMPRTAETLQQLLPGVGRYTAGAIASIAFGQATGVVDGNVARVLCRVRAIGADPSSTLVSQQLWGLAQQLVDPARPGDFNQAAMELGATVCTRQRPLCSQCPVESLCRARQRVEQEQLLASGSLSGSPDVEECAPNTGQCHLCLPPSEPWDQTLGVVNFPRKASRKPPREESSATCVLEQPGALGAQILLVQRPNSGLLAGLWEFPSVTWEPSEQLQRKALLQELQRWAGPLPATHLRHLGEVVHTFSHIKLTYQVYGLALEGQTPVTTVPPGARWLTQEEFHTAAVSTAMKKVFRVYQGQQPGTCMGSKRSQVSSPCSRKKPRMGQQVLDNFFRSHISTDAHSLNSAAQ", "note": "[P264R]", "8OG:A repair function score": -0.0983},
      {"variant": "MRKPRAAVGSGHRKQAASQEGRQKHAKNNSQAKPSACDGLARQPEEVVLQASVSSYHLFRDVAEVTAFRGSLLSWYDQEKRDLPWRRRAEDEMDLDRRAYAVWVSEVMLQQTQVATVINYYTGWMQKWPTLQDLASASLEEVNQLWAGLGYYSRGRRLQEGARKVVEELGGHMPRTAETLQQLLPGVGRYTAGAIASIAFGQATGVVDGNVARVLCRVRAIGADPSSTLVSQQLWGLAQQLVDPARPGDFNQAAMELGATVCTEQRPLCSQCPVESLCRARQRVEQEQLLASGSLSGSPDVEECAPNTGQCHLCLPPSEPWDQTLGVVNFPRKASRKPPREESSATCVLEQPGALGAQILLVQRPNSGLLAGLWEFPSVTWEPSEQLQRKALLQELQRWAGPLPATHLRHLGEVVHTFSHIKLTYQVYGLALEGQTPVTTVPPGARWLTQEEFHTAAVSTAMKKVFRVYQGQQPGTCMGSKRSQVSSPCSRKKPRMGQQVLDNFFRSHISTDAHSLNSAAQ", "note": "[P264E]", "8OG:A repair function score": -0.25},
      {"variant": "MRKPRAAVGSGHRKQAASQEGRQKHAKNNSQAKPSACDGLARQPEEVVLQASVSSYHLFRDVAEVTAFRGSLLSWYDQEKRDLPWRRRAEDEMDLDRRAYAVWVSEVMLQQTQVATVINYYTGWMQKWPTLQDLASASLEEVNQLWAGLGYYSRGRRLQEGARKVVEELGGHMPRTAETLQQLLPGVGRYTAGAIASIAFGQATGVVDGNVARVLCRVRAIGADPSSTLVSQQLWGLAQQLVDPARPGDFNQAAMELGATVCTQQRPLCSQCPVESLCRARQRVEQEQLLASGSLSGSPDVEECAPNTGQCHLCLPPSEPWDQTLGVVNFPRKASRKPPREESSATCVLEQPGALGAQILLVQRPNSGLLAGLWEFPSVTWEPSEQLQRKALLQELQRWAGPLPATHLRHLGEVVHTFSHIKLTYQVYGLALEGQTPVTTVPPGARWLTQEEFHTAAVSTAMKKVFRVYQGQQPGTCMGSKRSQVSSPCSRKKPRMGQQVLDNFFRSHISTDAHSLNSAAQ", "note": "[P264Q]", "8OG:A repair function score": -0.145},
      {"variant": "MRKPRAAVGSGHRKQAASQEGRQKHAKNNSQAKPSACDGLARQPEEVVLQASVSSYHLFRDVAEVTAFRGSLLSWYDQEKRDLPWRRRAEDEMDLDRRAYAVWVSEVMLQQTQVATVINYYTGWMQKWPTLQDLASASLEEVNQLWAGLGYYSRGRRLQEGARKVVEELGGHMPRTAETLQQLLPGVGRYTAGAIASIAFGQATGVVDGNVARVLCRVRAIGADPSSTLVSQQLWGLAQQLVDPARPGDFNQAAMELGATVCTKQRPLCSQCPVESLCRARQRVEQEQLLASGSLSGSPDVEECAPNTGQCHLCLPPSEPWDQTLGVVNFPRKASRKPPREESSATCVLEQPGALGAQILLVQRPNSGLLAGLWEFPSVTWEPSEQLQRKALLQELQRWAGPLPATHLRHLGEVVHTFSHIKLTYQVYGLALEGQTPVTTVPPGARWLTQEEFHTAAVSTAMKKVFRVYQGQQPGTCMGSKRSQVSSPCSRKKPRMGQQVLDNFFRSHISTDAHSLNSAAQ", "note": "[P264K]", "8OG:A repair function score": -0.048},
      {"variant": "MRKPRAAVGSGHRKQAASQEGRQKHAKNNSQAKPSACDGLARQPEEVVLQASVSSYHLFRDVAEVTAFRGSLLSWYDQEKRDLPWRRRAEDEMDLDRRAYAVWVSEVMLQQTQVATVINYYTGWMQKWPTLQDLASASLEEVNQLWAGLGYYSRGRRLQEGARKVVEELGGHMPRTAETLQQLLPGVGRYTAGAIASIAFGQATGVVDGNVARVLCRVRAIGADPSSTLVSQQLWGLAQQLVDPARPGDFNQAAMELGATVCTMQRPLCSQCPVESLCRARQRVEQEQLLASGSLSGSPDVEECAPNTGQCHLCLPPSEPWDQTLGVVNFPRKASRKPPREESSATCVLEQPGALGAQILLVQRPNSGLLAGLWEFPSVTWEPSEQLQRKALLQELQRWAGPLPATHLRHLGEVVHTFSHIKLTYQVYGLALEGQTPVTTVPPGARWLTQEEFHTAAVSTAMKKVFRVYQGQQPGTCMGSKRSQVSSPCSRKKPRMGQQVLDNFFRSHISTDAHSLNSAAQ", "note": "[P264M]", "8OG:A repair function score": -0.233},
      {"variant": "MRKPRAAVGSGHRKQAASQEGRQKHAKNNSQAKPSACDGLARQPEEVVLQASVSSYHLFRDVAEVTAFRGSLLSWYDQEKRDLPWRRRAEDEMDLDRRAYAVWVSEVMLQQTQVATVINYYTGWMQKWPTLQDLASASLEEVNQLWAGLGYYSRGRRLQEGARKVVEELGGHMPRTAETLQQLLPGVGRYTAGAIASIAFGQATGVVDGNVARVLCRVRAIGADPSSTLVSQQLWGLAQQLVDPARPGDFNQAAMELGATVCTHQRPLCSQCPVESLCRARQRVEQEQLLASGSLSGSPDVEECAPNTGQCHLCLPPSEPWDQTLGVVNFPRKASRKPPREESSATCVLEQPGALGAQILLVQRPNSGLLAGLWEFPSVTWEPSEQLQRKALLQELQRWAGPLPATHLRHLGEVVHTFSHIKLTYQVYGLALEGQTPVTTVPPGARWLTQEEFHTAAVSTAMKKVFRVYQGQQPGTCMGSKRSQVSSPCSRKKPRMGQQVLDNFFRSHISTDAHSLNSAAQ", "note": "[P264H]", "8OG:A repair function score": -0.113}
    ]}
  ]
}
